# Assay results as given in patent publication US20260258124A1 (CIMEIO THERAPEUTICS, published 2026).
# B1: Dreieckhorn (antibody, V domains shown)
# VH: QVQLVQSGAEVKKPGASVKVSCKASGYTFTSYNMHWVRQAPGQGLEWMGVIYSGQGDTSYNQKFKGRVTMTTDTSTSTAYMELRSLTSDDTAVYYCARERDTRFGNWGQGTLVTVSA
# VL: EIVLTQSPSSLSASVGDRVTITCRASESVDIYGESFMHWYQQKPGKAPKLLIYSASNLESGVPSRFSGSGSGTDFTLTISSLQPEDFATYYCQQNREEPYTFGQGTKLEIK
# notes: IgG; also called VH1.4/VL1.32
# B2: Allalinhorn (antibody, V domains shown)
# VH: QVQLVQSGAEVKKPGASVKVSCKASGYTFTSYNMHWVRQAPGQGLEWMGVIYSGNGDTSYNQKFKGRVTMTTDTSTSTAYMELRSLTSDDTAVYYCARERDTRFGNWGQGTLVTVSA
# VL: EIVLTQSPSSLSASVGDRVTITCRASESVDIYGESFMHWYQQKPGKAPKLLIYLASNLESGVPSRFSGSGSGTDFTLTISSLQPEDFATYYCQQNKEEPYTFGQGTKLEIKR
# notes: IgG; also called VH1/VL1.19; Allaninhorn
# B3: Piz Bernina (antibody, V domains shown)
# VH: QVQLVQSGAEVKKPGASVKVSCKASGYTFTSYNMHWVRQAPGQGLEWMGVIYSGNGDTSYNQKFKGRVTMTTDTSTSTAYMELRSLTSDDTAVYYCARERDTRFGNWGQGTLVTVSA
# VL: EIVLTQSPSSLSASVGDRVTITCRASESVDIYGESFMHWYQQKPGKAPKLLIYLASNLESGVPSRFSGSGSGTDFTLTISSLQPEDFATYYCQQNNEEPYTFGQGTKLEIKR
# notes: IgG; also called VH1/VL1.17
# B4: Piz Palü (antibody, V domains shown)
# VH: QVQLVQSGAEVKKPGASVKVSCKASGYTFTSYNMHWVRQAPGQGLEWMGVIYSGQGDTSYNQKFKGRVTMTTDTSTSTAYMELRSLTSDDTAVYYCARERDTRFGNWGQGTLVTVSA
# VL: EIVLTQSPSSLSASVGDRVTITCRASESVDIYGESFMHWYQQKPGKAPKLLIYHASNLESGVPSRFSGSGSGTDFTLTISSLQPEDFATYYCQQNREEPYTFGQGTKLEIK
# notes: IgG; also called VH1.4/VL1.30
# B5: Piz Roseg (antibody, V domains shown)
# VH: QVQLVQSGAEVKKPGASVKVSCKASGYTFTSYNMHWVRQAPGQGLEWMGVIYSGNGDTSYNQKFKGRVTMTTDTSTSTAYMELRSLTSDDTAVYYCARERDTRFGNWGQGTLVTVSA
# VL: EIVLTQSPSSLSASVGDRVTITCRASESVDIYGSSFMHWYQQKPGKAPKLLIYKASNLESGVPSRFSGSGSGTDFTLTISSLQPEDFATYYCQQNKEEPYTFGQGTKLEIKR
# notes: IgG; also called VH1/VL1.28
# B6: Piz Morteratsch (antibody, V domains shown)
# VH: QVQLVQSGAEVKKPGASVKVSCKASGYTFTSYNMHWVRQAPGQGLEWMGVIYSGQGDTSYNQKFKGRVTMTTDTSTSTAYMELRSLTSDDTAVYYCARERDTRFGNWGQGTLVTVSA
# VL: EIVLTQSPSSLSASVGDRVTITCRASESVDIYGESFMHWYQQKPGKAPKLLIYQASNLESGVPSRFSGSGSGTDFTLTISSLQPEDFATYYCQQNREEPYTFGQGTKLEIK
# notes: IgG; also called VH1.4/VL1.33
# B7: Nesthorn (antibody, V domains shown)
# VH: QVQLVQSGAEVKKPGASVKVSCKASGYTFTSYNMHWVRQAPGQGLEWMGVIYSGQGDTSYNQKFKGRVTMTTDTSTSTAYMELRSLTSDDTAVYYCARERDTRFGNWGQGTLVTVSA
# VL: EIVLTQSPSSLSASVGDRVTITCRASESVDIYGESFMHWYQQKPGKAPKLLIYEASNLESGVPSRFSGSGSGTDFTLTISSLQPEDFATYYCQQNREEPYTFGQGTKLEIK
# notes: IgG; also called VH1.4/VL1.31
# B8: Balmhorn (antibody, V domains shown)
# VH: QVQLVQSGAEVKKPGASVKVSCKASGYTFTSYNMHWVRQAPGQGLEWMGVIYSGQGDTSYNQKFKGRVTMTTDTSTSTAYMELRSLTSDDTAVYYCARERDTRFGNWGQGTLVTVSA
# VL: EIVLTQSPSSLSASVGDRVTITCRASESVDIYGESFMHWYQQKPGKAPKLLIYLASNLESGVPSRFSGSGSGTDFTLTISSLQPEDFATYYCQQNKEEPYTFGQGTKLEIKR
# notes: IgG; also called VH1.4/VL1.19
# B9: Bietschhorn (antibody, V domains shown)
# VH: QVQLVQSGAEVKKPGASVKVSCKASGYTFTSYNMHWVRQAPGQGLEWMGVIYSGNGDTSYNQKFKGRVTMTTDTSTSTAYMELRSLTSDDTAVYYCARERDTRFGNWGQGTLVTVSA
# VL: EIVLTQSPSSLSASVGDRVTITCRASESVDIYGESFMHWYQQKPGKAPKLLIYLASNLESGVPSRFSGSGSGTDFTLTISSLQPEDFATYYCQQNREEPYTFGQGTKLEIKR
# notes: IgG; also called VH1/VL1.29
# B10: Piz Argient (antibody, V domains shown)
# VH: QVQLVQSGAEVKKPGASVKVSCKASGYTFTSYNMHWVRQAPGQGLEWMGVIYSGNGDTSYNQKFKGRVTMTTDTSTSTAYMELRSLTSDDTAVYYCARERDTRFGNWGQGTLVTVSA
# VL: EIVLTQSPSSLSASVGDRVTITCRASESVDIYGHSFMHWYQQKPGKAPKLLIYLASNLESGVPSRFSGSGSGTDFTLTISSLQPEDFATYYCQQNKEEPYTFGQGTKLEIKR
# notes: IgG; also called VH1/VL1.27
# Legend:
# [1] = target: T1, human recombinant CD117 (c-Kit) from Sino Biological (Catalog No. 11996-H08H) (human, UniProt P10721 26-524); test: BLI Octet, set-up as in Example 2
# T1 construct: also called soluble antigen
# T1 sequence (P10721 26-524 limits assumed): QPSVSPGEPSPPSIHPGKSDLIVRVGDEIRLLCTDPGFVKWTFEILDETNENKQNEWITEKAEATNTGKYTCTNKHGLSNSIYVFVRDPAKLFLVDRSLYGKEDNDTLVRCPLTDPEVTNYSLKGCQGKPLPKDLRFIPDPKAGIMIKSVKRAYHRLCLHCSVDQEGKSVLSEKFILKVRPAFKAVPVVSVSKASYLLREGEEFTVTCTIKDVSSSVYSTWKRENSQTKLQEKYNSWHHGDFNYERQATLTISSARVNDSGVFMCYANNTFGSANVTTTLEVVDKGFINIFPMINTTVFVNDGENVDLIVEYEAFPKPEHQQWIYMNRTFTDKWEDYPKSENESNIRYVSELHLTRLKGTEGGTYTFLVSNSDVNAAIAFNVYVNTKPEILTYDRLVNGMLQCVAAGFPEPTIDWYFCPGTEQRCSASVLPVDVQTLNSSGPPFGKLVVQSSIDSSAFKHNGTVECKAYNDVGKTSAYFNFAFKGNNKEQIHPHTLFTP
# Description: IgG antibodies were immobilized on biosensors using suitable capture surfaces and binding of soluble antigen to immobilized antibodies was monitored by BLI (Octet). The resulting sensorgrams were analyzed using the supplied software (Fortebio). As antigen human recombinant CD117 (c-Kit) from Sino Biological was used (Catalog No. 11996-H08H, Lot #LC14SE0812). As a pre-experiment a series of experiments was performed to optimize assay parameters. The following parameters were selected:
# (§1) In the main experiment kinetic assays were performed by first capturing IgG using anti-human Fc biosensors. The mAb capture biosensors were then submerged in wells containing different concentrations of antigen (association stage) followed by a dissociation step in running buffer. To allow for double reference correction, IgG-captured sensors were dipped into wells containing only buffer and blank sensors were also dipped into wells containing the antigen. This referencing provided a means of compensating for both the natural dissociation of the capture IgG and non-specific binding of the antigen to the sensor surface. Steps were performed at 25° C. at a constant shaking of 1000 rpm. New sensors were used for each sample. Dissociation rate constants (Kd) were calculated using the ForteBio Data Analysis software. All consumables used were those recommended by ForteBio.
# [2] = target: T2, CD117 on wild-type cells (TF-1 cells, HSPCs, HSCs) (human, UniProt P10721 26-976); test: flow cytometry on TF-1 wild-type cells, Fc receptors blocked, goat anti-human IgG Alexa Fluor 488 as secondary antibody
# T2 construct: also called KIT; c-Kit
# T2 sequence (P10721 26-976 limits assumed): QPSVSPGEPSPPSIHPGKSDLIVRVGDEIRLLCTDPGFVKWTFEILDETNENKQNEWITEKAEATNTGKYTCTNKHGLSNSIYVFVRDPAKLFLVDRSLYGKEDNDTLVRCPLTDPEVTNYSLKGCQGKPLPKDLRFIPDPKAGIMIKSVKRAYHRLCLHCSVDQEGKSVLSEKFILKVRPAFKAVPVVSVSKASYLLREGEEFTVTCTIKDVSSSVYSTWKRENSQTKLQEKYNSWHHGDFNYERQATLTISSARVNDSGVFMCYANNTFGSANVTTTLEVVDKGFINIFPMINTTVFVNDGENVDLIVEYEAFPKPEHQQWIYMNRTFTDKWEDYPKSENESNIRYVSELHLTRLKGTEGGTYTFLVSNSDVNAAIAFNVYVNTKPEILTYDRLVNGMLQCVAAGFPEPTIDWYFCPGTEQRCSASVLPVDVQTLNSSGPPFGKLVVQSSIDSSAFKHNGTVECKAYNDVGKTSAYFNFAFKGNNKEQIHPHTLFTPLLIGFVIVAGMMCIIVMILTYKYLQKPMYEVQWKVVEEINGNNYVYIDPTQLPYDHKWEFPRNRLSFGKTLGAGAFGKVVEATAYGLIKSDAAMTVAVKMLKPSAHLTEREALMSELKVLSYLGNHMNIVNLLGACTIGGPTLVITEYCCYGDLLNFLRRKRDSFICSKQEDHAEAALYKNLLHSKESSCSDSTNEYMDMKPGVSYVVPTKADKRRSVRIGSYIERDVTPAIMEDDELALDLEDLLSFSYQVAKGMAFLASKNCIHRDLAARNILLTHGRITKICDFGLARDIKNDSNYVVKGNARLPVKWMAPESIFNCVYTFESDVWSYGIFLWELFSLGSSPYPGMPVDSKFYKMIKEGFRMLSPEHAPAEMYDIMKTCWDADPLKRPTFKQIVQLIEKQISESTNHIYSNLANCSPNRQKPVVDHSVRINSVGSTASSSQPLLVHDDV
# Description: Binding of the antibodies of the present disclosure to CD117 on TF-1 cells was measured. TF-1 wild-type cells were seeded at a concentration of 100,000 cells/well. A Fc receptor blocking was performed using 25 μL TruStain FcX (BioLegend) for 15 min. Next cells are treated with various concentrations of the antibodies to be tested (0.0001-5 μg/ml). After additional 30 min cells were washed, then a secondary antibody was added to the cells (IgG (H+L) Cross-Adsorbed Goat anti-Human, Alexa Fluor® 488). After 30 min and two additional wash steps a live dead staining via 7AAD (7-aminoactinomycin D) was performed using 0.5 μg/mL 7AAD for 10 min before analyzing cells in a flow cytometer.
# [3] = target: T1, human recombinant CD117 (c-Kit) from …; test: BLI Octet, set-up as in Example 2; remark: listed apart in the source
# Description: as §1
# All samples were diluted in freshly prepared running buffer. Antibody variants were immobilized onto the surface of a series of biosensors using the capture methods described. Antigen was passed over the surface to generate a binding response. Binding data for the IgG:antigen interactions were collected at 25° C. on the biosensors. A dilution series of the antigen was used in the association step, in order to fit results globally and get the best values for ka, kd, and KD. The response data for the binding of antigen to the surface immobilized IgG were fitted to a 1:1 binding model. HC0 LC0 refers to murine SR-1.
# [4] = target: T2, CD117 on wild-type cells (TF-1 cells, …); test: cell-based or functional assay
# [5] = target: T2, CD117 on wild-type cells (TF-1 cells, …); test: cell-based or functional assay; remark: listed apart in the source
binder,measurement,setting,value
B1,binding result,[1],binds
B2,EC50 (read off the curve),[2],~0.02 µg/mL
same,Kd,[3],0.45 nM
same,"IC50, inhibition of SCF-dependent proliferation of TF-1 cells (CellTiter-Glo), Average",[4],0.0441 µg/mL
same,"IC50, inhibition of SCF-dependent proliferation of TF-1 cells (CellTiter-Glo), Experiment #1",[4],0.0415 µg/mL
same,"IC50, inhibition of SCF-dependent proliferation of TF-1 cells (CellTiter-Glo), Experiment #2",[4],0.0467 µg/mL
same,"IC50, inhibition of SCF-dependent proliferation of CD34-positive HSPCs (CellTiter-Glo)",[5],0.0313 µg/mL
B3,EC50 (read off the curve),[2],~0.02 µg/mL
same,Kd,[3],0.19 nM
same,"IC50, inhibition of SCF-dependent proliferation of TF-1 cells (CellTiter-Glo), Average",[4],0.0176 µg/mL
same,"IC50, inhibition of SCF-dependent proliferation of TF-1 cells (CellTiter-Glo), Experiment #1",[4],0.0122 µg/mL
same,"IC50, inhibition of SCF-dependent proliferation of TF-1 cells (CellTiter-Glo), Experiment #2",[4],0.0231 µg/mL
same,"IC50, inhibition of SCF-dependent proliferation of CD34-positive HSPCs (CellTiter-Glo)",[5],0.00521 µg/mL
B4,binding result,[1],binds
B5,EC50 (read off the curve),[2],~0.2 µg/mL
same,Kd,[3],8.3 nM
same,"IC50, inhibition of SCF-dependent proliferation of TF-1 cells (CellTiter-Glo), Average",[4],> 0.5 µg/mL
same,"IC50, inhibition of SCF-dependent proliferation of TF-1 cells (CellTiter-Glo), Experiment #1",[4],> 0.5 µg/mL
same,"IC50, inhibition of SCF-dependent proliferation of TF-1 cells (CellTiter-Glo), Experiment #2",[4],> 0.5 µg/mL
same,"IC50, inhibition of SCF-dependent proliferation of CD34-positive HSPCs (CellTiter-Glo)",[5],> 10 µg/mL
B6,binding result,[1],binds
B7,binding result,[1],binds
B8,binding result,[1],binds
B9,EC50 (read off the curve),[2],~0.04 µg/mL
same,Kd,[3],1.1 nM
same,"IC50, inhibition of SCF-dependent proliferation of TF-1 cells (CellTiter-Glo), Average",[4],0.151 µg/mL
same,"IC50, inhibition of SCF-dependent proliferation of TF-1 cells (CellTiter-Glo), Experiment #1",[4],0.0455 µg/mL
same,"IC50, inhibition of SCF-dependent proliferation of TF-1 cells (CellTiter-Glo), Experiment #2",[4],0.256 µg/mL
same,"IC50, inhibition of SCF-dependent proliferation of CD34-positive HSPCs (CellTiter-Glo)",[5],0.0842 µg/mL
B10,EC50 (read off the curve),[2],~0.1 µg/mL
same,Kd,[3],3.3 nM
same,"IC50, inhibition of SCF-dependent proliferation of TF-1 cells (CellTiter-Glo), Average",[4],> 0.5 µg/mL
same,"IC50, inhibition of SCF-dependent proliferation of TF-1 cells (CellTiter-Glo), Experiment #1",[4],> 0.5 µg/mL
same,"IC50, inhibition of SCF-dependent proliferation of TF-1 cells (CellTiter-Glo), Experiment #2",[4],> 0.5 µg/mL
same,"IC50, inhibition of SCF-dependent proliferation of CD34-positive HSPCs (CellTiter-Glo)",[5],> 10 µg/mL
